Here are results for two molecules from patent publication US20200338219A1 (ACTINIUM PHARMACEUTICALS, published 2020).

The target of assay [1] is T1, human CD45 protein, wild-type (WT) construct expressed on HEK-293T cells (human, UniProt P08575 26-1306).
T1 construct: also called target protein (WT); PTPRC
T1 sequence: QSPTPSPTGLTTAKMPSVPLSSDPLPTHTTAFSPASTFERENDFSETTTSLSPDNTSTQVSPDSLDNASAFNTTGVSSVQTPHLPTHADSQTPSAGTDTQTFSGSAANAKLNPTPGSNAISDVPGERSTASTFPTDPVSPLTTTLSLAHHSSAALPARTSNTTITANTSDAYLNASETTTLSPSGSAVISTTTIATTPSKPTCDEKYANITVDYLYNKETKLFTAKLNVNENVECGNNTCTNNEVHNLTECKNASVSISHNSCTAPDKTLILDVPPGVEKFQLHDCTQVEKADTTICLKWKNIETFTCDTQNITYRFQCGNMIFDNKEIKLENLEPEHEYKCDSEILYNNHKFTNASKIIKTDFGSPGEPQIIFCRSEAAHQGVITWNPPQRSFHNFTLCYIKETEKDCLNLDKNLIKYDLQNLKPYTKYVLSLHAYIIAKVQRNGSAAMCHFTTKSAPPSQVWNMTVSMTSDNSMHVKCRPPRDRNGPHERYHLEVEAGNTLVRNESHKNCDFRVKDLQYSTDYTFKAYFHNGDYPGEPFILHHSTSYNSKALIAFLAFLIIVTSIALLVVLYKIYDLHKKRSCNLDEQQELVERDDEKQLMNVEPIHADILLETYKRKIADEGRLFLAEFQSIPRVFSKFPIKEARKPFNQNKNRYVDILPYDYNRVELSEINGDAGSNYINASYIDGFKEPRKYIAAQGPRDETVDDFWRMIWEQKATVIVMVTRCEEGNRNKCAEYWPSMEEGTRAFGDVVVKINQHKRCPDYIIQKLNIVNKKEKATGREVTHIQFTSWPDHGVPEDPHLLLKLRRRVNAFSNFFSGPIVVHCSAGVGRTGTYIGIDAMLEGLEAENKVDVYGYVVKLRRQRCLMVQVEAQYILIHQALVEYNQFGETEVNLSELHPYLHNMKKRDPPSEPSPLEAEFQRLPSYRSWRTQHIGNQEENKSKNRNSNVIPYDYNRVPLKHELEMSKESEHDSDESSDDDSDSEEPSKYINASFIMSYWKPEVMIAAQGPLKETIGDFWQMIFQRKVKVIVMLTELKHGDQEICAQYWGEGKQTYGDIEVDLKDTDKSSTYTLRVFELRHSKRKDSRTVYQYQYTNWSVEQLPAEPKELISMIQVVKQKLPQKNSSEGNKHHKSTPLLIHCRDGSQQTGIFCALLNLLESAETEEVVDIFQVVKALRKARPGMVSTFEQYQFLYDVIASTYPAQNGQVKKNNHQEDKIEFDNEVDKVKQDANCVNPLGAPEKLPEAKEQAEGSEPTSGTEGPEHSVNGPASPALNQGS
Briefly: high-throughput flow cytometry on HEK-293T cells expressing WT CD45 against vector alone, 5.00 µg/ml. The procedure: (§1) Cells were transfected with a wild-type (WT) construct of the target protein or with vector alone in 384-well format, followed by detection of cellular expression via high-throughput flow cytometry. Serial dilutions of each MAb were tested for immunoreactivity against cells expressing target protein (WT) or vector alone.
Background: A flow cytometer gives signals particle by particle.

Assay [2] has as its target T1, human CD45 protein, wild-type (WT) …. In words: high-throughput flow cytometry on HEK-293T cells expressing WT CD45 against vector alone, 5.0 ug/ml. The method, then: as §1

B1: murine anti-CD45 monoclonal antibody BC8 (antibody, mouse IgG1, kappa, V domains shown)
VH: EVKLLESGGGLVQPGGSLKLSCAASGFDFSRYWMSWVRQAPGKGLEWIGEINPTSSTINFTPSLKDKVFISRDNAKNTLYLQMSKVRSEDTALYYCARGNYYRYGDAMDYWGQGTSVTVSS
VL: DIALTQSPASLAVSLGQRATISCRASKSVSTSGYSYLHWYQQKPGQPPKLLIYLASNLESGVPARFSGSGSGTDFTLNIHPVEEEDAATYYCQHSRELPFTFGSGTKLEIKR
modifications: position 141 is found to be a mixture of ASP and ASN in the purified protein (deamidation of ASN-141)
notes: Purified from hybridoma ATCC HB-10507; also called BC8 MAb; anti-CD45 immunoglobulin BC8
Regarding B1, the “Signal:Background” value in assay [1] is 9 signal:background ratio.

B2: BC8 Fab (Fab, V domains shown)
VH: EVKLLESGGGLVQPGGSLKLSCAASGFDFSRYWMSWVRQAPGKGLEWIGEINPTSSTINFTPSLKDKVFISRDNAKNTLYLQMSKVRSEDTALYYCARGNYYRYGDAMDYWGQGTSVTVSS
VL: DIALTQSPASLAVSLGQRATISCRASKSVSTSGYSYLHWYQQKPGQPPKLLIYLASNLESGVPARFSGSGSGTDFTLNIHPVEEEDAATYYCQHSRELPFTFGSGTKLEIKR
notes: It was detected with an anti-mouse F(ab')2 secondary antibody; also called Test Fab
Take B2: in assay [2], the “Signal:Background” value was 6 signal:background ratio.
